Data as given in article PMC10004559, “Identification of residues involved in allosteric signal transmission from amino acid binding site of pyruvate kinase muscle isoform 2” (PLOS ONE, 2023).

System: C=C(OP(=O)(O)O)C(=O)O
Test: purified protein, by the assay type
Conditions: ADP 0.8 mM, pH 7.5

Sequence of PKM2 R106A (Homo sapiens; R106A) (chain, as listed by the source R106A R106A): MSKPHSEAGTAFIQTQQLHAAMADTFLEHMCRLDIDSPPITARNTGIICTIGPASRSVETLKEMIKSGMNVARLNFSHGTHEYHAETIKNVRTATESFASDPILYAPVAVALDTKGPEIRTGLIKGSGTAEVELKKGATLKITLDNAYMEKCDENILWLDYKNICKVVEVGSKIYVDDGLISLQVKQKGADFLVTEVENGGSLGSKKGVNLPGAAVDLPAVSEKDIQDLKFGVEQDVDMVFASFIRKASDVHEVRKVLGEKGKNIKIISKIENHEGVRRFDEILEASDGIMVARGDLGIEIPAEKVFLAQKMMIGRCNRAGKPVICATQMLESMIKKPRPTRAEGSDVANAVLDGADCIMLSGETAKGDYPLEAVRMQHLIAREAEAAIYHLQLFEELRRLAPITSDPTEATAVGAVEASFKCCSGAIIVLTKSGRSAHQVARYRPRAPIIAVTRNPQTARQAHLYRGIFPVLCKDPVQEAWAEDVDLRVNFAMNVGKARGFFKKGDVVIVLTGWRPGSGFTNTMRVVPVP
Sequence of PKM2 N70D (Homo sapiens; N70D) (chain, as listed by the source N70D N70D): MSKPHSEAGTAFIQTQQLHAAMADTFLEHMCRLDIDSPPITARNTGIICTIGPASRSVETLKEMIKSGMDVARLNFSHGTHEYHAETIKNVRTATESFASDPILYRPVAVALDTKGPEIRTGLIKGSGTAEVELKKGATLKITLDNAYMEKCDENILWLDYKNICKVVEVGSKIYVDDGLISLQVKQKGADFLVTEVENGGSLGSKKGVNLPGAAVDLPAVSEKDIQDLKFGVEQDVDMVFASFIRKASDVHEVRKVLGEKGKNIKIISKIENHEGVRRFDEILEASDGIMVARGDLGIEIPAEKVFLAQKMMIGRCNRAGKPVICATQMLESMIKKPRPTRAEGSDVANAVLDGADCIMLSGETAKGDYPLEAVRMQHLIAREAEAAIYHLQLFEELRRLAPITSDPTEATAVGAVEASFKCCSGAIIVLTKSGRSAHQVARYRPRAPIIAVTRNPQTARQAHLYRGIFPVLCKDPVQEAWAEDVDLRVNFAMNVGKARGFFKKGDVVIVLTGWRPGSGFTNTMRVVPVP
Sequence of PKM2 N75L (Homo sapiens; N75L) (chain, as listed by the source N75L N75L): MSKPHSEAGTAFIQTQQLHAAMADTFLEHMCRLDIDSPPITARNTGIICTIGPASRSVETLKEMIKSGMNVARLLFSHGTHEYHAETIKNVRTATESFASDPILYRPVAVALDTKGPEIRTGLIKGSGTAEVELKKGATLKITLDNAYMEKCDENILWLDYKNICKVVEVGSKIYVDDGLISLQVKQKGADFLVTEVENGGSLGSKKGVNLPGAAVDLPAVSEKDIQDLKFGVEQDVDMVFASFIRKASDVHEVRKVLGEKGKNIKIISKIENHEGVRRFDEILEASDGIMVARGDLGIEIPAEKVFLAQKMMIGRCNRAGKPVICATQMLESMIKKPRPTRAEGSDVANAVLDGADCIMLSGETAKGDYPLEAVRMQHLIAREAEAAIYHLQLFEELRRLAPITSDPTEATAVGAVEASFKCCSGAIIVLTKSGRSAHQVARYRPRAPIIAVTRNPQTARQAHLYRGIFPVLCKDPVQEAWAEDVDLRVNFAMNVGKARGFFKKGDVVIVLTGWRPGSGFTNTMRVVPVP

PKM2 N70D (Homo sapiens; N70D)
Km (other: 65 nM PKM2 N70D, no AA): 780 ± 160 µM
kcat/Km (other: 65 nM PKM2 N70D, no AA): 5.9±1.3 ×10^3 mM^-1 min^-1

PKM2 N75L (Homo sapiens; N75L)
Km (other: 4200 nM PKM2 N75L, no AA): 80 µM

PKM2 R106A (Homo sapiens; R106A)
Km (other: 50 nM PKM2 R106A, no AA): 510 ± 40 µM
kcat/Km (other: 50 nM PKM2 R106A, no AA): 9.6±0.8 ×10^3 mM^-1 min^-1

wtPKM2 (Homo sapiens)
Km (other: 10 nM wtPKM2, no AA): 700 µM
